B1: GST-TBC1D5 (residues 132–156) (domain or fragment)
chain: GQQDLMINNPLSQDEGSLWNKFFQD
notes: TBC1D5 residues 132-156, holds the Asn Pro Leu motif and the short helix upstream of it; also called TBC1D5 (132–156); not shown: GST, N-terminal, kept
B2: GST-VARP residues 692-746, 4C mutant (all four Cys to Ser) (domain or fragment)
chain: TEEDLEDAEDTVSAADPEFSHPLSQSPKSAPAQKRLAKVPASGLGVNVTSQDGSSW
notes: non-native Trp residue numbered 747; source: E. coli BL21 (DE3) pLysS, pGEX6P1, purified (GST-Sepharose, S75 Superdex gel filtration); not shown: GST, N-terminal, kept

Columns and labels:
[1] = biological target: VPS29 (short isoform, N-terminal sequence MLVL), untagged (UniProt Q9UBQ0-1 1-182); assay: SPR; Biacore T200; GST fusion captured on goat anti-GST antibody coupled to a CM5 chip, GST-CLA on the blank flow cell; VPS29 as analyte, typically 40 to 0.3 μM; 20 mM Tris, 200 mM NaCl, 0.1 mM TCEP, 0.5 μM ZnCl2, pH 7.4; 12 °C for the KD of 2–3 µM; equilibrium and kinetic analysis, single site; conditions: both partners purified
[2] = biological target: long VPS29 (isoform with the N-terminal sequence …) (UniProt Q9UBQ0-2 1-186); assay: as above; conditions: both partners purified

Binder | Kd [1] [µM] | Kd [2] [µM]
B1 | > 300 | ~67
B2 | 55 | –
